Test results: US20100098704A1 (CELLDEX THERAPEUTICS, published 2010)

B1: human anti-DEC-205 monoclonal antibody 5A8-1F1 (antibody, V domains shown)
VH: QVQLVESGGGVVQPGRSLRLSCAASGFTFSTYGMHWVRQAPGKGLEWVAIIWYDGGNKYYADSVKGRFTISRDNSKNTLYLQMNSLRAEDTAVYYCARDFYWYFDLWGRGTLVTVSS
VL: EIVLTQSPATLSLSPGERATLSCRASQSVSSYLAWYQQKPGQAPRLLIYDASNRATGIPARFSGSGSGTDFTLTISSLEPEDFAVYYCQQRRTFGQGTKVEIK
B2: human anti-DEC-205 monoclonal antibody 3C7-3A3 (antibody, V domains shown)
VH: QVQLVESGGGVVQPGRSLRLSCAASGFTFSSYNMHWVRQAPGKGLEWVAFIWYDGSNKYYGDSVKGRFTISRDNSKNTLYLQMNSLRAEDTAVYYCAREELGIGWYFDLWGRGTLVTVSS
VL: B1 VL
B3: human anti-DEC-205 monoclonal antibody 3D6-2F4 (antibody, V domains shown)
VH: QVQLVESGGGVVQPGRSLRLSCAASGFIFSIYGMHWVRQAPGKGLEWVAVIWYDGSNKYYADSVKGRFTISRDNSKNTLYLQMNSLRAEDTAVYYCARAPHFDYWGQGTLVTVSS
VL: DIQMTQSPSSLSASVGDRVTITCRASQGISSWLAWYQQKPEKAPKSLIYAASSLQSGVPSRFSGSGSGTDFTLTISSLQPEDFATYYCQQYNSYPYTFGQGTKLEIK
notes: also called mAb #5
B4: human anti-DEC-205 monoclonal antibody 3G9-2D2 (antibody, V domains shown)
VH: QVQLVESGGGVVQPGRSLRLSCAASGFTFSNYGMYWVRQAPGKGLEWVAVIWYDGSNKYYADSVKGRFTISRDNSKNTLYLQMNSLRAEDTAVYYCARDLWGWYFDYWGQGTLVTVSS
VL: EIVLTQSPATLSLSPGERATLSCRASQSVSSYLAWYQQKPGQAPRLLIYDASNRATGIPARFSGSGSGTDFTLTISSLEPEDFAVYYCQQRRNWPLTFGGGTKVEIK

Key:
[1] = molecular target: T1, soluble recombinant human DEC-205 fusion protein (DEC-205 extracellular domain comprising all ten … (human)); experiment: SPR (Biacore 2000), DEC-205 fusion protein amine-coupled to CM5 chip, antibody flowed, 1:1 Langmuir fit, mean of two series
T1 chain: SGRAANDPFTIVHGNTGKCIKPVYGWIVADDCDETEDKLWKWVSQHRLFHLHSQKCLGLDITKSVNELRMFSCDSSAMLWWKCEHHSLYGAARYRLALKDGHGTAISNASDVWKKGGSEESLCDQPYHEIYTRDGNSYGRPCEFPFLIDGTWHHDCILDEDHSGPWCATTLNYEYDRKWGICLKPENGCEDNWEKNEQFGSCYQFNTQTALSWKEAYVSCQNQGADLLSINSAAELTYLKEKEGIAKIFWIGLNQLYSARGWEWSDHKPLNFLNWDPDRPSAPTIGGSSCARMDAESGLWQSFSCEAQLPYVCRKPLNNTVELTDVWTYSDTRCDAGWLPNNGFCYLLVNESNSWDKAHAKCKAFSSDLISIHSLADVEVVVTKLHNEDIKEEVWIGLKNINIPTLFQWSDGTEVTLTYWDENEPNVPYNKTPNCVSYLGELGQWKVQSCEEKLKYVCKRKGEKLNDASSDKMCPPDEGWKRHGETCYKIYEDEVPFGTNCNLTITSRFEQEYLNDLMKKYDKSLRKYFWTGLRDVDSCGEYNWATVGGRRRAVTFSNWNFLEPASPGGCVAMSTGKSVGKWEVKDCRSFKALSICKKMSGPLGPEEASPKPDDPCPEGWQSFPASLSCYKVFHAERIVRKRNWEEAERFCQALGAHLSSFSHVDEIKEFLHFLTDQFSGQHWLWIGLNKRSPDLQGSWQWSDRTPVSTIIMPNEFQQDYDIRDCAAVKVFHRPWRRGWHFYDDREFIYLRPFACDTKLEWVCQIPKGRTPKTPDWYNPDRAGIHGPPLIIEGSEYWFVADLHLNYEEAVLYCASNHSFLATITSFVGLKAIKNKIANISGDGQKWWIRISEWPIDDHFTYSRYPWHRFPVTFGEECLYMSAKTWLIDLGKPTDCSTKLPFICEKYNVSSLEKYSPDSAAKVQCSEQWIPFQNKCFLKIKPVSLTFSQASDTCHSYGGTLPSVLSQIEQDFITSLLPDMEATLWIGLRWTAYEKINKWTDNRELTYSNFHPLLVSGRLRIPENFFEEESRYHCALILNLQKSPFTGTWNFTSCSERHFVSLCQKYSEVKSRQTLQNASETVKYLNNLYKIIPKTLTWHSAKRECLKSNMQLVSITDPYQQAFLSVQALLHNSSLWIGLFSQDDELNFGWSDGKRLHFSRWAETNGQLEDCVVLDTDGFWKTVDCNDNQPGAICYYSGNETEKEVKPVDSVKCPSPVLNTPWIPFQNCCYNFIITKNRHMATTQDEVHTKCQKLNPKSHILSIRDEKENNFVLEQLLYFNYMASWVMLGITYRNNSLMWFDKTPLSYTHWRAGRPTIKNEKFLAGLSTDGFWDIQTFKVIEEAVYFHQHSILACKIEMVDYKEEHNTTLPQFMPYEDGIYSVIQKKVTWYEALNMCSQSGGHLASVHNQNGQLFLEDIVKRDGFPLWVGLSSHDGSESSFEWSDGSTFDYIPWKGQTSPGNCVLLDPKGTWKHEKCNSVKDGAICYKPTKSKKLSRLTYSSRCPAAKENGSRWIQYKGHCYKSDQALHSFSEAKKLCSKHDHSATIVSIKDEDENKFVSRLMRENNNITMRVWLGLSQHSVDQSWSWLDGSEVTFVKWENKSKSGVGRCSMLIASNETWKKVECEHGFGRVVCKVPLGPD

[2] = molecular target: T2, human Dendritic and Epithelial Cell 205 receptor (DEC-205) expressed on cells (human, UniProt O60449 28-1722); experiment: flow cytometry, human monocyte-derived dendritic cells, saturating antibody, PE goat anti-human IgG Fc [D]
[3] = molecular target: T2, human Dendritic and Epithelial Cell 205 …; experiment: flow cytometry, human monocyte-derived dendritic cells, saturating antibody, PE goat anti-human IgG Fc [F]
[4] = molecular target: T2, human Dendritic and Epithelial Cell 205 …; experiment: flow cytometry, CHO-S cells expressing human DEC-205 against control CHO-S cells, saturating antibody, PE goat anti-human IgG Fc [A]
[5] = molecular target: T2, human Dendritic and Epithelial Cell 205 …; experiment: flow cytometry, human monocyte-derived dendritic cells, saturating antibody, PE goat anti-human IgG Fc [C]

Binder | Ka [1] | Kd [1] | koff [1] | kon [1] | binding result [2] | binding result [3] | binding result [4] | binding result [5]
B1 | 2.1e+09 M⁻¹ | 1.5 nM | 0.0002 s⁻¹ | 360000 M⁻¹ s⁻¹ | binds | – | – | –
B2 | 5.2e+08 M⁻¹ | 5.6 nM | 0.00076 s⁻¹ | 170000 M⁻¹ s⁻¹ | – | binds | – | –
B3 | 1.5e+10 M⁻¹ | 0.08 nM | 0.00012 s⁻¹ | 1.8e+06 M⁻¹ s⁻¹ | – | – | binds | –
B4 | 4.7e+09 M⁻¹ | 0.24 nM | 0.00019 s⁻¹ | 900000 M⁻¹ s⁻¹ | – | – | – | binds
